Laboratory results taken from FireProtDB.
“And” between values parts separate entries of the source, which are not always exact repeats. Equal entries are not always repeated.

B1: L-asparaginase 2, P00805 (parent)
chain: MEFFKKTALAALVMGFSGAALALPNITILATGGTIAGGGDSATKSNYTVGKVGVENLVNAVPQLKDIANVKGEQVVNIGSQDMNDNVWLTLAKKINTDCDKTDGFVITHGTDTMEETAYFLDLTVKCDKPVVMVGAMRPSTSMSADGPFNLYNAVVTAADKASANRGVLVVMNDTVLDGRDVTKTNTTDVATFKSVNYGPLGYIHNGKIDYQRTPARKHTSDTPFDVSKLNELPKVGIVYNYANASDLPAKALVDAGYDGIVSAGVGNGNLYKSVFDTLATAAKTGTAVVRSSRVPTGATTQDAEVDDAKYGFVASGTLNPQKARVLLQLALTQTKDPQQIQQIFNQY
B2: N154D|K396R, Q8GB52 (parent)
chain: MLKKVLSCCIAATFGIYSASSLAQSSVINSTENSQQPIAPLVLASSDDAITDRYIVVLKQPQMLMNDAAGLQQFTQQTVGLMANSFSIKTDDVFDSSIIGFVANLDALQLKQLRRDSRVEYIEQDQILSIDPVVSNEAVQSNAIWGLDRIDQRNLPLDRNYNANFDGFGVTAYVIDTGVNNNHEEFGGRSVSGYDFVDNDADSSDCNGHGTHVAGTIGGSQYGVAKNVNIVGVRVLSCSGSGTTSGVISGVDWVAQNASGPSVANMSLGGGQSTALDSAVQGAIQSGVSFMLAAGNSNADACNTSPARVPSGVTVGSTTSSDSRSSFSNWGSCVDLFAPGSQIKSAWYDGGYKTISGTSMATPHVAGVAALYLQENNGLTPLQLTGLLNSRASENKVSDTRGTTNKLLYSLADSGCEPDCGGPTPGPDPDGKLVSGVPVNGLSGSRGQKDYFYMDLQQGQQLTVVTIGGTGDADLYLRFGDKPTLNTWDCRPYRSGNSETCTVNVTQSGRYHVMLNAYSAYSGLTLQANF
B3: Pseudoazurin, P80401 (parent)
chain: MFHHSLAAAAAALLALAAPGFAATHEVHMLNKGESGAMVFEPAFVRAEPGDVINFVPTDKSHNVEAIKEILPEGVESFKSKINESYTLTVTEPGLYGVKCTPHFGMGMVGLVQVGDAPENLDAAKTAKMPKKARERMDAELAQVN
B4: Aspartate aminotransferase, P00509 (parent)
chain: MFENITAAPADPILGLADLFRADERPGKINLGIGVYKDETGKTPVLTSVKKAEQYLLENETTKNYLGIDGIPEFGRCTQELLFGKGSALINDKRARTAQTPGGTGALRVAADFLAKNTSVKRVWVSNPSWPNHKSVFNSAGLEVREYAYYDAENHTLDFDALINSLNEAQAGDVVLFHGCCHNPTGIDPTLEQWQTLAQLSVEKGWLPLFDFAYQGFARGLEEDAEGLRAFAAMHKELIVASSYSKNFGLYNERVGACTLVAADSETVDRAFSQMKAAIRANYSNPPAHGASVVATILSNDALRAIWEQELTDMRQRIQRMRQLFVNTLQEKGANRDFSFIIKQNGMFSFSGLTKEQVLRLREEFGVYAVASGRVNVAGMTPDNMAPLCEAIVAVL
B5: Tryptophan synthase alpha chain, P00929 (parent)
chain: MERYENLFAQLNDRREGAFVPFVTLGDPGIEQSLKIIDTLIDAGADALELGVPFSDPLADGPTIQNANLRAFAAGVTPAQCFEMLALIREKHPTIPIGLLMYANLVFNNGIDAFYARCEQVGVDSVLVADVPVEESAPFRQAALRHNIAPIFICPPNADDDLLRQVASYGRGYTYLLSRSGVTGAENRGALPLHHLIEKLKEYHAAPALQGFGISSPEQVSAAVRAGAAGAISGSAIVKIIEKNLASPKQMLAELRSFVSAMKAASRA
B6: NADP-dependent isopropanol dehydrogenase, P25984 (parent)
chain: MKGFAMLGINKLGWIEKERPVAGSYDAIVRPLAVSPCTSDIHTVFEGALGDRKNMILGHEAVGEVVEVGSEVKDFKPGDRVIVPCTTPDWRSLEVQAGFQQHSNGMLAGWKFSNFKDGVFGEYFHVNDADMNLAILPKDMPLENAVMITDMMTTGFHGAELADIQMGSSVVVIGIGAVGLMGIAGAKLRGAGRIIGVGSRPICVEAAKFYGATDILNYKNGHIVDQVMKLTNGKGVDRVIMAGGGSETLSQAVSMVKPGGIISNINYHGSGDALLIPRVEWGCGMAHKTIKGGLCPGGRLRAEMLRDMVVYNRVDLSKLVTHVYHGFDHIEEALLLMKDKPKDLIKAVVIL
B7: Phosphoglycerate kinase, P18912 (parent)
chain: MNKKTIRDVDVRGKRVFCRVDFNVPMEQGAITDDTRIRAALPTIRYLIEHGAKVILASHLGRPKGKVVEELRLDAVAKRLGELLERPVAKTNEAVGDEVKAAVDRLNEGDVLLLENVRFYPGEEKNDPELAKAFAELADLYVNDAFGAAHRAHASTEGIAHYLPAVAGFLMEKELEVLGKALSNPDRPFTAIIGGAKVKDKIGVIDNLLEKVDNLIIGGGLAYTFVKALGHDVGKSLLEEDKIELAKSFMEKAKEKGVRFYMPVDVVVADRFANDANTKVVPIDAIPADWSALDIGPKTRELYRDVIRESKLVVWNGPMGVFEMDAFAHGTKAIAEALAEALDTYSVIGGGDSAAAVEKFGLADKMDHISTGGGASLEFMEGKQLPGVVALEDK
B8: Colicin-E1, P02978 (parent)
chain: METAVAYYKDGVPYDDKGQVIITLLNGTPDGSGSGGGGGKGGSKSESSAAIHATAKWSTAQLKKTQAEQAARAKAAAEAQAKAKANRDALTQRLKDIVNEALRHNASRTPSATELAHANNAAMQAEDERLRLAKAEEKARKEAEAAEKAFQEAEQRRKEIEREKAETERQLKLAEAEEKRLAALSEEAKAVEIAQKKLSAAQSEVVKMDGEIKTLNSRLSSSIHARDAEMKTLAGKRNELAQASAKYKELDELVKKLSPRANDPLQNRPFFEATRRRVGAGKIREEKQKQVTASETRINRINADITQIQKAISQVSNNRNAGIARVHEAEENLKKAQNNLLNSQIKDAVDATVSFYQTLTEKYGEKYSKMAQELADKSKGKKIGNVNEALAAFEKYKDVLNKKFSKADRDAIFNALASVKYDDWAKHLDQFAKYLKITGHVSFGYDVVSDILKIKDTGDWKPLFLTLEKKAADAGVSYVVALLFSLLAGTTLGIWGIAIVTGILCSYIDKNKLNTINEVLGI

Variants of: B1
Details: Escherichia coli (strain K12); pH 7.4; 25 °C; Urea; Fluorescence; Tris-HCl 50 mM; structure 3ECA; whole UniProt chain shown
T34S showed an unfolding free energy of 11.2 kcal/mol. In the case of T34A, the unfolding free energy is reported as 11.5 kcal/mol. Work on T141A yielded an unfolding free energy of 11.5 kcal/mol. With S144A the unfolding free energy was 12.4 kcal/mol.

Variants of: B2
Details: Vibrio sp. PA-44; pH 8.6; Thermal; CD; Glycine 25 mM; NaCl and CaCl2 100 mM and 15 mM; structure 1SH7; whole UniProt chain shown
For N154D K396R, the Tm was 65.1 °C and the “change of melting temperature, mutant - wild type (higher = more stable)” value (from here on “change of melting temperature, mutant”) was 1.5 °C. With N154D the Tm was 66.3 °C and 68.2 °C and the “change of melting temperature, mutant” value was 2.7 °C and 3.1 °C.

Variants of: B3
Details: Paracoccus pantotrophus; pH 7; 25 °C; Urea; CD; Sodium phosphate 20 mM; Na2SO4 0.5 M; reversible: yes; structure 1ADW; whole UniProt chain shown
Work on Y96W yielded a denaturant m value of 1.19 kcal/mol/M.

Variants of: B4
Details: Escherichia coli (strain K12); pH 7.5; 25 °C; Urea; enzyme activity; potassium phosphate 20 mM; structure 1AMQ; whole UniProt chain shown
For C180W, the unfolding free energy was 6.1 kcal/mol. With C180Y the unfolding free energy was 7.7 kcal/mol. In the case of C180S, the unfolding free energy is reported as 8.1 kcal/mol. With C180F the unfolding free energy was 8.4 kcal/mol.

Variants of: B5
Details: Salmonella typhimurium (strain LT2 / SGSC1412 / ATCC 700720); pH 7.8; Thermal; Enzyme activity; sodium N/N-bis(2-hydroxyethyl)glycine 0.05 M; structure 2WSY; whole UniProt chain shown
In the case of C118S, the Tm is reported as 41 °C and the “change of melting temperature, mutant” value is reported as -5 °C.

Variants of: B6
Details: Clostridium beijerinckii; pH 6.8; Thermal; CD; Na/K phosphate 50 mM; structure 1KEV; whole UniProt chain shown
With Q165E M304R the Tm was 70.4 °C and the “change of melting temperature, mutant” value was 5.3 °C. With V224E S254K the Tm was 70.5 °C and the “change of melting temperature, mutant” value was 5.4 °C. In the case of V224E S254K Q165E M304R, the Tm is reported as 73.7 °C and the “change of melting temperature, mutant” value is reported as 8.6 °C. With V224E S254K Q165E M304R R238A the Tm was 73.6 °C and the “change of melting temperature, mutant” value was 8.5 °C.

Variants of: B7
Details: Geobacillus stearothermophilus; pH 7.2; 25 °C; GdnHCl; Fluorescence; TEA 50 mM; reversible: no; structure 1PHP; whole UniProt chain shown
With I217A L221A the unfolding free energy was 5.7 kcal/mol and 9.6 kcal/mol.

Variants of: B8
Details: Escherichia coli; pH 6; 22 °C; Urea; Fluorescence; dimethylglutaric acid 10 mM; NaCl 100 mM; reversible: yes; structure 2I88; whole UniProt chain shown
With F404W the “denaturant midpoint (higher = more stable)” value (“denaturant midpoint” below) was 4.8 M. With F431W the “denaturant midpoint” value was 5.8 M. With W424F W495F the “denaturant midpoint” value was 6.1 M. In the case of F355T, the “denaturant midpoint” value is reported as 4.9 M. For F443W, the “denaturant midpoint” value was 5.5 M. For W460F W495F, the “denaturant midpoint” value was 6.1 M. With Y367W the “denaturant midpoint” value was 4.9 M. With W424F W460F the “denaturant midpoint” value was 5.3 M. In the case of F484W, the “denaturant midpoint” value is reported as 4.6 M. In the case of Y507W, the “denaturant midpoint” value is reported as 5.7 M.
